Read-outs that look alike come from different tables or passages of the source. Square brackets hold non-standard residues; d marks the D form. Ends that are not written are not given here. Peptide text beside a SMILES is read from it. pY = N[C@@H](Cc1ccc(OP(=O)(O)O)cc1)C(=O)O
How the values were obtained:
cells = assay: Peptide localization in cells (anti-phospho-Tyr immunofluorescence); assay type: cell-based
Protocol: To examine peptide localization, cells were treated with P-1 or P-2 peptide for 4 hours, stained with anti-phospho-Tyr and rhodamine-conjugated antibody, and observed with a confocal microscope. A Z-scan was carried out to make images in each 0.15 μm section from the top of the cells to the bottom. […] Cells treated with P-1 peptide were not stained by anti-phospho-Tyr antibody, confirming the specifity of the immunofluoroscence staining. In a time course analysis, cells were serum-starved for 24 hours, and incubated with peptide (5 μM) for various time periods. Cells were stained by anti-phosphoro-Tyr antibody and analyzed under an immunofluoroscence microscope. Cells treated with P-2 peptide retained phospho-peptide for up to 24 hrs. In a dose response experiment, cells were starved in serum-free medium for 24 hours, cultured with peptide at various concentrations, and stained with anti-phospho-tyrosine antibody (4G10) to detect the peptide containing phospho-tyrosine residue (red) and by Hoechst 33258 for nuclei (blue). P-2 peptide was detected at 0.5 μM and 1 μM in cells .

[1] = molecular target: GST-Shc PTB domain fusion protein (human) (UniProt P29353); assay: SPR (Biacore) competition, Table 1
GST-Shc PTB domain fusion protein (human), sequence (P29353 111-319 limits assumed): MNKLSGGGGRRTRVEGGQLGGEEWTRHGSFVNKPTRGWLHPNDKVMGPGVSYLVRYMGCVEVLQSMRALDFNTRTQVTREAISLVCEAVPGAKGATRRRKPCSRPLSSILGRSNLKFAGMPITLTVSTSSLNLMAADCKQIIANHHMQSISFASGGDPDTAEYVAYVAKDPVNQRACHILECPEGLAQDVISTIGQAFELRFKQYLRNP

[2] = molecular target: GST-Shc PTB domain fusion protein (human) (UniProt P29353); assay: not stated in Table 2; the same number as the IC50 of Table 1
[3] = molecular target: GST-Shc PTB domain fusion protein (human) (UniProt P29353); assay: competition with EGF-R for GST-ShcB beads, dose response, anti-phospho-Tyr blot
[4] = molecular target: GST-Shc PTB domain fusion protein (human) (UniProt P29353); assay: not stated in Table 2; presumably as the IC50 of Table 1
[5] = molecular target: GST-Shc PTB domain fusion protein (human) (UniProt P29353); assay: SPR (Biacore) competition, Table 1; remark: listed apart in the source

For CC[C@H](C)[C@H](NC(=O)[C@H](CCCCN)NC(=O)[C@@H](NC(=O)[C@H](CCC(N)=O)NC(=O)[C@@H](N)CCCNC(=N)N)[C@@H](C)CC)C(=O)N[C@@H](Cc1c[nH]c2ccccc12)C(=O)N[C@@H](Cc1ccccc1)C(=O)N[C@@H](CCC(N)=O)C(=O)N[C@@H](CC(N)=O)C(=O)N[C@@H](CCCNC(=N)N)C(=O)N[C@@H](CCCNC(=N)N)C(=O)N[C@@H](CCSC)C(=O)N[C@@H](CCCCN)C(=O)N[C@@H](Cc1c[nH]c2ccccc12)C(=O)N[C@@H](CCCCN)C(=O)N[C@@H](CCCCN)C(=O)N[C@@H](Cc1c[nH]cn1)C(=O)N[C@H](C(=O)N[C@H](C(=O)N[C@@H](CCC(=O)O)C(=O)N[C@@H](CC(N)=O)C(=O)N1CCC[C@H]1C(=O)N[C@@H](CCC(N)=O)C(=O)N[C@@H](Cc1ccc(OP(=O)(O)O)cc1)C(=O)N[C@@H](Cc1ccccc1)C(=O)N[C@@H](CO)C(=O)N[C@@H](CC(=O)O)C(=O)O)[C@@H](C)CC)[C@@H](C)CC [P-2, RQIKIWFQNRRMKWKK-HIIENPQpYFSD] (H-RQIKIWFQNRRMKWKKHIIENPQ[pY]FSD-OH), the “peptide localization in cells” value (cells; cells treated 4 hours, anti-phospho-Tyr staining, confocal microscope) was “localized in the cytoplasm of cells, and not in the nucleus”, the “detection of peptide in cells by anti-phospho-tyrosine staining” value (cells; dose response, 0.5 μM and 1 μM (concentrations up to 1 μM)) was “detected” and the “retention of phospho-peptide in cells” value (cells; time course, peptide 5 μM, serum-starved cells) was “up to 24 hrs”.

With “RQIKIWFQNRRMKWKKHIIENPQYFSD [P-1, RQIKIWFQNRRMKWKK-HIIENPQYFSD]” the “peptide localization in cells” value (cells) was “not stained”.

In the case of “Wt NGF receptor phosphopeptide His-Ile-Ile-Glu-Asn-Pro-Gln-P.Tyr-Phe-Ser-Asp”, the fold increase of the affinity against the peptide with Ala at -2 [1] is reported as 10 fold and the value printed beside the sequence without a heading [2] is reported as 175 nM.

B1: C-1, Cyclo-(IENPQpYFSPG) (peptide)
peptide: cyclo(IENPQ[pY]FSPG)
SMILES: CC[C@H](C)[C@@H]1NC(=O)CNC(=O)[C@@H]2CCCN2C(=O)[C@H](CO)NC(=O)[C@H](Cc2ccccc2)NC(=O)[C@H](Cc2ccc(OP(=O)(O)O)cc2)NC(=O)[C@H](CCC(N)=O)NC(=O)[C@@H]2CCCN2C(=O)[C@H](CC(N)=O)NC(=O)[C@H](CCC(=O)O)NC1=O
Molecule B1 has a percent inhibition at 100 µM [3] of 50%.

B2: Trk wild type truncated phosphopeptide IENPQpYFSD (peptide)
peptide: IENPQ[pY]FSD
With B2 the value printed beside the sequence without a heading [4] was 4 µM.

B3: Ala-6, Ala-5 NGF receptor peptide H-A-A-E-N-P-Q-p.Y-F-S-D (peptide)
peptide: HAAENPQ[pY]FSD
B3 was tested, and the fold lower affinity against a phosphopeptide with an Ile at either position -6 or -5 [5] was 3 fold.
